Experimental data as given in article PMC8767016, “The Bacteroidetes Aequorivita sp. and Kaistella jeonii Produce Promiscuous Esterases With PET-Hydrolyzing Activity” (Frontiers in Microbiology, 2022).

Experiments:
[1] = target: T1, PET30ΔPorC (Kaistella jeonii, UniProt A0A0C1F4U8); assay: pNP release at […] nm, relative activity; format: biochemical; conditions: 30°C
T1 construct: gene OA86_11720; C-terminal PorC (T9SS) sorting domain 300-366 deleted; signal peptide removed; His-tagged, E. coli host; monomer in asymmetric unit

[2] = substrate: CCCCCC(=O)Oc1ccc([N+](=O)[O-])cc1; assay: purified protein; format: biochemical, Kaistella jeonii; conditions: 30°C, pH 8

| Molecule | pNP release at 405 nm, relative activity [1] | Km [2] [µM] | kcat [2] [s⁻¹] |
| --- | --- | --- | --- |
| CCCCCC(=O)Oc1ccc([N+](=O)[O-])cc1 [pNP-C6] | Activity tests confirmed that it was not affected in its activities using pNP-C6 |  |  |
| PET30 (Kaistella jeonii) (protein, signal peptide removed, Met added; C-terminal 6xHis (pET21a), E. coli host, Ni-NTA; PorC (T9SS) domain kept) QCTGATVESLTNPGPYTVATLSEADGVRNGPKYAGSTIYYPTNATPPYASIAIVPGFTAAPSSVQEWGPFYASHGIVAIIIGTNSLYDQPEARALALLDALETIKQENGRATSPLIGKLDVTKLAVSGWSMGGGGAQRAAVLDNTISAVVALCPYLTSPQLNHTVPVLIFSGQSDPTAPPSQHANVHYNTTPGTTNKLLFEVKNGNHSVANSPTGGGGAVGKLALSWLKIYLEKNDCYCSVLATAIVNSTTVSSKISQSYQCNNALGVVDSKTRFNLYPNPTKDFVQVNVREMASYQLSSSTGQIVLKGIVTSSKNQIDLSKLPAGVYYLQINGETIKVIKKQ |  | 300 | 8.9 |
